Values quoted from earlier work, collected in paper PMC7081292.
Read-outs that look alike come from different tables or passages of the source.

What was measured:
His57 [1] = biological target: T1, His57 (UniProt position 57, VVTAAHCGVTT); settings: zwitterionic tetrahedral (hemiacetal) adduct with an aldehyde inhibitor
His57 [2] = biological target: T1, His57; experiment: NMR; settings: zwitterionic tetrahedral adduct with a peptide-derived glyoxal inhibitor

In the case of “Chymotrypsin (not stated (presumably Bos taurus))”, the pKa (His57 [1]) is given as “∼ 8” and the pKa (His57 [2]) is given as over 11.
